# Laboratory results: PMC13079258, “Impact of Ser81 phosphorylation on alanine: glyoxylate aminotransferase associated with Primary hyperoxaluria type I” (Molecular Biomedicine, 2026)
# Numbering of substitutions follows the chain as printed. Names may count otherwise.
# T1: AGT (alanine:glyoxylate aminotransferase 1), AGT WT (Homo sapiens, UniProt P21549)
# T1 construct: gene AGXT; apo-form prepared with L-alanine; dimer
# T1 sequence (P21549 1-392): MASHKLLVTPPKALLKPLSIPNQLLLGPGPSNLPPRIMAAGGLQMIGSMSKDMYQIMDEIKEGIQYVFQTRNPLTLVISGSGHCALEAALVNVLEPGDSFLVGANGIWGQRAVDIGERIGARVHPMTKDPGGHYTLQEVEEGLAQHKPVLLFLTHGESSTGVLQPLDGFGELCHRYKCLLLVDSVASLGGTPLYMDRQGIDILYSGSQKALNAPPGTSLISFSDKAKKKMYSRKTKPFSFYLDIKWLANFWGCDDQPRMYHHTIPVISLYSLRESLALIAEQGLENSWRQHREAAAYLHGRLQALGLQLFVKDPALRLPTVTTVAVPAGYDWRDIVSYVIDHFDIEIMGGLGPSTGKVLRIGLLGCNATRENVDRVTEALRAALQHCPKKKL
# B1: Alanine:glyoxylate aminotransferase (AGT) WT (enzyme, human, UniProt P21549 1-392, looked up)
# chain: T1 sequence (P21549 1-392)
# notes: also called wild-type; major allele
# B2: AGT WT p.S81A (enzyme, human, UniProt P21549 1-392, looked up)
# chain: T1 sequence (P21549 1-392) with S81A
# notes: Alanine:glyoxylate aminotransferase (AGT), human, wild-type background with S81A; site-directed mutant of the pCOLDII construct of m1; also called set A81
# B3: AGT LM p.S81D (enzyme, human, UniProt P21549 1-392, looked up)
# chain: T1 sequence (P21549 1-392) with P11L, S81D, I340M
# notes: Alanine:glyoxylate aminotransferase (AGT), human, minor allele (LM) background with the phosphomimetic S81D; site-directed mutant of the pCOLDII construct of m2; also called set D81
# B4: AGT LM-p.G170R (enzyme, human, UniProt P21549 1-392, looked up)
# chain: T1 sequence (P21549 1-392) with P11L, G170R, I340M
# notes: Alanine:glyoxylate aminotransferase (AGT), human, minor allele (LM) with the PH1-associated variant p.G170R; also called set S81
# B5: AGT WT p.S81D (enzyme, human, UniProt P21549 1-392, looked up)
# chain: T1 sequence (P21549 1-392) with S81D
# notes: Alanine:glyoxylate aminotransferase (AGT), human, wild-type background with the phosphomimetic S81D; site-directed mutant of the pCOLDII construct of m1; also called set D81
# B6: AGT LM-p.G170R p.S81A (enzyme, human, UniProt P21549 1-392, looked up)
# chain: T1 sequence (P21549 1-392) with P11L, S81A, G170R, I340M
# notes: Alanine:glyoxylate aminotransferase (AGT), human, LM-p.G170R background with S81A; site-directed mutant of the pCOLDII construct of m3; also called set A81
# B7: AGT LM-p.I244T (enzyme, human, UniProt P21549 1-392, looked up)
# chain: T1 sequence (P21549 1-392) with P11L, I244T, I340M
# notes: Alanine:glyoxylate aminotransferase (AGT), human, minor allele (LM) with the PH1-associated variant p.I244T; also called set S81
# B8: AGT LM (minor allele, p.P11L and p.I340M) (enzyme, human, UniProt P21549 1-392, looked up)
# chain: T1 sequence (P21549 1-392) with P11L, I340M
# notes: Alanine:glyoxylate aminotransferase (AGT), human, common polymorphic minor allele (LM); also called set S81
# B9: AGT LM p.S81A (enzyme, human, UniProt P21549 1-392, looked up)
# chain: T1 sequence (P21549 1-392) with P11L, S81A, I340M
# notes: Alanine:glyoxylate aminotransferase (AGT), human, minor allele (LM) background with S81A; site-directed mutant of the pCOLDII construct of m2; also called set A81
# B10: AGT LM-p.I244T p.S81A (enzyme, human, UniProt P21549 1-392, looked up)
# chain: T1 sequence (P21549 1-392) with P11L, S81A, I244T, I340M
# notes: Alanine:glyoxylate aminotransferase (AGT), human, LM-p.I244T background with S81A; site-directed mutant of the pCOLDII construct of m4; also called set A81
# B11: AGT LM-p.I244T p.S81D (enzyme, human, UniProt P21549 1-392, looked up)
# chain: T1 sequence (P21549 1-392) with P11L, S81D, I244T, I340M
# notes: Alanine:glyoxylate aminotransferase (AGT), human, LM-p.I244T background with the phosphomimetic S81D; site-directed mutant of the pCOLDII construct of m4; also called set D81
# B12: AGT LM-p.G170R p.S81D (enzyme, human, UniProt P21549 1-392, looked up)
# chain: T1 sequence (P21549 1-392) with P11L, S81D, G170R, I340M
# notes: Alanine:glyoxylate aminotransferase (AGT), human, LM-p.G170R background with the phosphomimetic S81D; site-directed mutant of the pCOLDII construct of m3; also called set D81
# Biological target: the molecule itself
# Test: dynamic light scattering; 10 µM AGT as purified, 25 °C, 20 mM HEPES (sodium salt), 200 mM NaCl, pH 7.4; hydrodynamic radius assuming spherical particles (Stokes-Einstein)
# Details: not given
row,Molecule,stoichiometry N
1,B1,2
2,B2,2
3,B3,2
4,B4,2
5,B5,2
6,B6,2
7,B7,2
8,B8,2
9,B9,2
10,B10,2
11,B11,2
12,B12,2

# Biological target: T1, AGT (alanine:glyoxylate aminotransferase 1), AGT WT
# Test: absorption and near-UV/visible CD after L-alanine; 30-kDa filtration for released PMP
# Type: biochemical
# Details: 20 uM holo-AGT, 200 mM L-alanine, 25 C, HEPES 20 mM, NaCl 200 mM, pH 7.4
row,Molecule,absorption and near-UV/visible CD after L-alanine; 30-kDa filtration for release
1,Cc1ncc(COP(=O)(O)O)c(CN)c1O [PMP],"the CD signal associated with PMP formation, clearly present in S81 and A81 sets"
